Biological target: T1, BSA (bovine, UniProt P02769)
T1 construct: also called bovine serum albumin
Assay: ELISA, BSA as control antigen; detection with anti-human IgG HRP

T1 sequence (P02769 25-607 limits assumed): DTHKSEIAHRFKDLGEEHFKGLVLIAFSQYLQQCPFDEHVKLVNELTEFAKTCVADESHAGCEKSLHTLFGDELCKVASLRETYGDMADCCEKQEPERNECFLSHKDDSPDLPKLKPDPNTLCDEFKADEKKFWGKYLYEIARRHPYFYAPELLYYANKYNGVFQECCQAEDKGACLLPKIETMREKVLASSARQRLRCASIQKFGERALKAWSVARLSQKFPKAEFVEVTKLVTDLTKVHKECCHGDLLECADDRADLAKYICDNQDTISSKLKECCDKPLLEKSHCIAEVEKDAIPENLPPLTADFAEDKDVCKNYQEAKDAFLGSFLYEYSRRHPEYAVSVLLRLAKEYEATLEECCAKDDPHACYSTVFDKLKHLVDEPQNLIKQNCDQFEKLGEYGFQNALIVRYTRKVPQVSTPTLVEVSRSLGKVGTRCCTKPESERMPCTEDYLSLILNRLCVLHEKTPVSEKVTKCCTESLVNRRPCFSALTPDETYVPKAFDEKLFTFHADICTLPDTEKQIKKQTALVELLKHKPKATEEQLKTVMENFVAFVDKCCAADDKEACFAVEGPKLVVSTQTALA

B1: LC10 YTE (antibody corresponding to mAb LC10 containing an Fc variant (antibody, V domains shown)
VH: EVQLVESGGGLVQPGGSLRLSCAASGFTFSSHDMHWVRQATGKGLEWVSGIGTAGDTYYPDSVKGRFTISRENAKNSLYLQMNSLRAGDTAVYYCARDRYSPTGHYYGMDVWGQGTTVTVSS
VL: DIQMTQSPSTLSASVGDRVTITCRASQSISSWLAWYQQKPGKAPKLLIYKASSLESGVPSRFSGSGSGTEFTLTISSLQPDDFATYYCKQYADYWTFGQGTKVEIKR
notes: also called LC10-IgG1-YTE; MEDI4893
B1: no binding.

Reference: patent US20140072577A1 (AstraZeneca / MedImmune, published 2014)
